This data set relates to hMLH1 expression (methylation-silenced hMLH1 promoter) in HEK293T cells. Put plainly: hMLH1 mRNA levels by TaqMan qRT-PCR in transfected HEK293T cells. It counts as cell-based, human. The method, then:
To test the system, HEK293T cells were transfected with Casilio-ME components including Ct or Nt-fusion TET1-effector and a combination of 3 or 2 sgRNAs. Relative levels of hMLH1 mRNA were determined in TaqMan assays by using RNA extracted from cells 60 hours post-transfection and GAPDH as endogenous control for normalization of qRT-PCR measurements.
Cell culture and transfection. HEK293T cells were cultivated in Dulbecco's modified Eagle's medium (DMEM)(Sigma) with 10% fetal bovine serum (FBS)(Lonza), 4% Glutamax (Gibco), 1% Sodium Pyruvate (Gibco) and penicillin-streptomycin (Gibco) in an incubator set to 37° C. and 5% CO2. When indicated cells were treated with 2.5 μM or 5 μM 5-Azacytidine (sigma) as indicated with a daily change of medium containing freshly diluted drug. Cells were seeded into 12-well plates at 150,000 cells per well the day before being transfected with 100 ng of dCas9 construct, 100 ng of modified sgRNA construct and 200 ng of PUF-fusion with Attractene transfection reagent according to manufacturer's instructions (Qiagen). In dCas9-direct fusion experiments, cells were transfected with 200 ng dCas9-fusion constructs and 200 ng of modified sgRNA constructs. Transfected cells were harvested 60 hours after transfection, or otherwise indicated, and cell pellets were used for extractions of RNA, genomic DNA and protein.
Quantitative RT-PCR analysis. Cells were harvested, washed with Dulbecco's phosphate-buffered saline (dPBS), centrifuged at 125×g for 5 min and then the flash-frozen pellets were stored at −80° C. RNA was extracted using RNeasy Plus Mini Kit according to the manufacturer's instructions (Qiagen). cDNA libraries were made using Applied Biosystems High Capacity RNA-to-cDNA kit with 200 ng to 1 μg of RNA. TaqMan gene expression assays (Applied Biosystems) were designed using GAPDH (Hs03929097, VIC) as endogenous control and hMLH1 (Hs00179866, FAM) as target. TaqMan Universal Master Mix II, with UNG (Applied Biosystems) was used for Quantitative PCR (qPCR), with 2 μl of diluted cDNA used for each reaction. Activation was analyzed with the Applied Biosystems ViiA7 instrument. Gene expression levels were calculated by “delta delta Ct” algorithm and normalized to control samples.
HEK293T cells were cultivated in Dulbecco's modified Eagle's medium (DMEM) (Sigma) with 10% fetal bovine serum (FBS) (Lonza), 4% Glutamax (Gibco), 1% Sodium Pyruvate (Gibco) and penicillin-streptomycin (Gibco) in an incubator set to 37° C. and 5% CO2. Cells were seeded into 12-well plates at 150,000 cells per well the day before being transfected with 100 ng of dCas9 construct, 100 ng of modified sgRNA construct and 200 ng of PUF-fusion with Attractene transfection reagent according to manufacturer's instructions (Qiagen). Transfected cells were harvested 3 days after transfection, or otherwise indicated, and cell pellets were used for RNA extractions.
Cells were harvested, washed with Dulbecco's phosphate-buffered saline (dPBS), centrifuged at 125×g for 5 min and then the flash-frozen pellets were stored at −80° C. RNA was extracted using RNeasy Plus Mini Kit according to the manufacturer's instructions (Qiagen). cDNA libraries were made using Applied Biosystems High Capacity RNA-to-cDNA kit with 200 ng to 2 μg of RNA. TaqMan gene expression assays (Applied Biosystems) were designed using GAPDH (Hs03929097, VIC) as endogenous control and hMLH1 (Hs00179866, FAM) as target. TaqMan Universal Master Mix II, with UNG (Applied Biosystems) was used for Quantitative PCR (qPCR), with 2 μl of diluted cDNA used for each reaction. Activation was analyzed with the Applied Biosystems ViiA7 instrument. Gene expression levels were calculated by “delta delta Ct” algorithm and normalized to control samples.
(In general: Quantitative PCR measures a nucleic acid by following its amplification.)

B1: TET1(CD)(H1671Y D1673A)-PUFa: catalytically dead TET1(CD) PUFa fusion; SEQ ID NO:110 (protein)
chain: MIDGGGGSDPKKKRKVDPKKKRKVDPKKKRKVGSTGSRNDGGGGSGGGGSGGGGSGRAGILPPKKKRKVSRGRSRLLEDFRNNRYPNLQLREIAGHIMEFSQDQHGSRFIQLKLERATPAERQLVFNEILQAAYQLMVDVFGNYVIQKFFEFGSLEQKLALAERIRGHVLSLALQMYGSRVIEKALEFIPSDQQNEMVRELDGHVLKCVKDQNGNHVVQKCIECVQPQSLQFIIDAFKGQVFALSTHPYGCRVIQRILEHCLPDQTLPILEELHQHTEQLVQDQYGNYVIQHVLEHGRPEDKSKIVAEIRGNVLVLSQHKFASNVVEKCVTHASRTERAVLIDEVCTMNDGPHSALYTMMKDQYANYVVQKMIDVAEPGQRKIVMHKIRPHIATLRKYTYGKHILAKLEKYYMKNGVDLGDPKKKRKVDPKKKRKVGGRGGGGSGGGGSGGGGSGPAELPTCSCLDRVIQKDKGPYYTHLGAGPSVAAVREIMENRYGQKGNAIRIEIVVYTGKEGKSSHGCPIAKWVLRRSSDEEKVLCLVRQRTGHHCPTAVMVVLIMVWDGIPLPMADRLYTELTENLKSYNGHPTDRRCTLNENRTCTCQGIDPETCGASFSFGCSWSMYFNGCKFGRSPSPRRFRIDPSSPLHEKNLEDNLQSLATRLAPIYKQYAPVAYQNQVEYENVARECRLGSKEGRPFSGVTACLDFCAHPYRAIHNMNNGSTVVCTLTREDNRSLGVIPQDEQLHVLPLYKLSDTDEFGSKEGMEAKIKSGAIEVLAPRRKKRTCFTQPVPRSGKKRAAMMTEVLAHKIRAVEKKPIPRIKRKNNSTTTNNSKPSSLPTLGSNTETVQPEVKSETEPHFILKSSDNTKTYSLMPSAPHPVKEASPGFSWSPKTASATPAPLKNDATASCGFSERSSTPHCTMPSGRLSGANAAAADGPGISQLGEVAPLPTLSAPVMEPLINSEPSTGVTEPLTPHQPNHQPSFLTSPQDLASSPMEEDEQHSEADEPPSDEPLSDDPLSPAEEKLPHIDEYWSDSEHIFLDANIGGVAIAPAHGSVLIECARRELHATTPVEHPNRNHPTRLSLVFYQHKNLNKPQHGFELNKIKFEAKEAKNKKMKASEQKDQAANEGPEQSSEVNELNQIPSHKALTLTHDNVVTVSPYALTHVAGPYNHWVID
Consider B1, for which the “hMLH1 expression without TET1 catalytic activity” value (GADD45A expressed with catalytically dead TET1(CD) fusion or without TET1(CD) fusion) is on record as “no hMLH1 expression was detected”.

B2: NEIL2: NEIL2 glycosylase enhancer, tested fused to PUFa-TET1(CD) (either PUFa terminus) or to PUFc (protein)
chain: MLPEGPLVRKFHHLVSPFVGQQVVKTGGSSKKLQPASLQSLWLQDTQVHGKKLFLRFDLDEEMGPPGSSPTPEPPQKEVQKEGAADPKQVGEPSGQKTLDGSSRSAELVPQGEDDSEYLERDAPAGDAGRWLRVSFGLFGSVWVNDFSRAKKANKRGDWRDPSPRLVLHFGGGGFLAFYNCQLSWSSSPVVTPTCDILSEKFHRGQALEALGQAQPVCYTLLDQRYFSGLGNIIKNEALYRAGIHPLSLGSVLSASRREVLVDHVVEFSTAWLQGKFQGRPQHTQVYQKEQCPAGHQVMKEAFGPEDGLQRLTWWCPQCQPQLSEEPEQCQFS
As for B2, under “MLH1 gRNAs, NEIL2 at either PUFa terminus”, the “increase in gene activation with NEIL2 in the PUFa-TET1CD fusion (repeat experiment)” value was “four-fold increase in gene activation”. The “increase in hMLH1 expression with NEIL2 fused to PUFc” value (co-expressed with PUFa-TET1(CD), gRNAs with PBSa/c, RT-quantitative PCR) came to 7 fold. For the same molecule, the “hMLH1 activation by DNA glycosylase two-in-one effector fusions (in words)” value (fusions to PUFa-TET1(CD), gRNA 5xPBSa, HEK293T, 3 days) is on record as “enhanced activation of hMLH1”. In addition, under “gRNA scaffold with PBSa only”, the “effect on TET1-mediated gene activation when gRNA lacked PBSc” value is reported as “no effect on TET1-mediated gene activation”. Further, the “hMLH1 activation relative to TET1 effector alone” value (two-in-one fusion to PUFa-TET1(CD)) came out at 3 fold.

B3: PUFc-NEIL2: SEQ ID NO:127 (protein)
chain: MIDGGGGSDPKKKRKVDPKKKRKVDPKKKRKVGSTGSRNDGGGGSGGGGSGGGGSGRAGILPPKKKRKVSRGRSRLLEDFRNNRYPNLQLREIAGHIMEFSQDQHGSRFIQLKLERATPAERQLVFNEILQAAYQLMVDVFGNYVIQKFFEFGSLEQKLALAERIRGHVLSLALQMYGSRVIEKALEFIPSDQQNEMVRELDGHVLKCVKDQNGNHVVQKCIECVQPQSLQFIIDAFKGQVFALSTHPYGCRVIQRILEHCLPDQTLPILEELHQHTEQLVQDQYGSYVIEHVLEHGRPEDKSKIVAEIRGNVLVLSQHKFANNVVQKCVTHASRTERAVLIDEVCTMNDGPHSALYTMMKDQYANYVVQKMIDVAEPGQRKIVMHKIRPHIATLRKYTYGKHILAKLEKYYMKNGVDLGDPKKKRKVDPKKKRKVGGRGGGGSGGGGSGGGGSGPALPEGPLVRKFHHLVSPFVGQQVVKTGGSSKKLQPASLQSLWLQDTQVHGKKLFLRFDLDEEMGPPGSSPTPEPPQKEVQKEGAADPKQVGEPSGQKTLDGSSRSAELVPQGEDDSEYLERDAPAGDAGRWLRVSFGLFGSVWVNDFSRAKKANKRGDWRDPSPRLVLHFGGGGFLAFYNCQLSWSSSPVVTPTCDILSEKFHRGQALEALGQAQPVCYTLLDQRYFSGLGNIIKNEALYRAGIHPLSLGSVLSASRREVLVDHVVEFSTAWLQGKFQGRPQHTQVYQKEQCPAGHQVMKEAFGPEDGLQRLTWWCPQCQPQLSEEPEQCQFS
Take B3: the “stimulation of TET1(CD) mediated hMLH1 activation by independent NEIL2 module” value (dual expression with PUFa-TET1(CD), gRNAs with both PBSa/c) is “significant stimulation of the TET1(CD) mediated hMLH1 activation”.

The values are drawn from patent publication US20190218261A1, “TARGETED ENHANCED DNA DEMETHYLATION” (The Jackson Laboratory, priority 2016, published 2019).
